The series deals with the molecule itself. Nature of the series: single-molecule photobleaching step counting.

B1: GFP-TAX-4 (cyclic nucleotide-gated TAX-4 ion channel with EGFP fused to the cytosolic N-terminus) (natural protein, C. elegans, UniProt Q03611 1-733, looked up)
chain: MSTAEPAPDPTNPSTSGLAPTTNGIGSPPPTASAATKFSILTKFLRRKNQVHTTTAQQNEFMQKYMPNGNSNAVQPAATGGQPASSDGGSAIEVPPPKESYAVRIRKYLANYTQDPSTDNFYYWTCVVTVAYIYNLLFVIARQVFNDLIGPSSQSLCRFYNGTLNSTTQVECTYNMLTNMKEMPTYSQYPDLGWSKYWHFRMLWVFFDLLMDCVYLIDTFLNYRMGYMDQGLVVREAEKVTKAYWQSKQYRIDGISLIPLDYILGWPIPYINWRGLPILRLNRLIRYKRVRNCLERTETRSSMPNAFRVVVVVWYIVIIIHWNACLYFWISEWIGLGTDAWVYGHLNKQSLPDDITDTLLRRYVYSFYWSTLILTTIGEVPSPVRNIEYAFVTLDLMCGVLIFATIVGNVGSMISNMSAARTEFQNKMDGIKQYMELRKVSKQLEIRVIKWFDYLWTNKQSLSDQQVLKVLPDKLQAEIAMQVHFETLRKVRIFQDCEAGLLAELVLKLQLQVFSPGDFICKKGDIGREMYIVKRGRLQVVDDDGKKVFVTLQEGSVFGELSILNIAGSKNGNRRTANVRSVGYTDLFVLSKTDLWNALREYPDARKLLLAKGREILKKDNLLDENAPEEQKTVEEIAEHLNNAVKVLQTRMARLIVEHSSTEGKLMKRIEMLEKHLSRYKALARRQKTMHGVSIDGGDISTDGVDERVRPPRLRQTKTIDLPTGTESESLLK
For the protein B1, the “stoichiometry N” value was determined as 4.

The values above are taken from doi:10.1101/2021.07.05.451181 (bioRxiv, 2021).
